Publication PMC9547286, “LOXL2-dependent deacetylation of aldolase A induces metabolic reprogramming and tumor progression^☆” (Redox Biology, 2022)

Target: T1, LOXL2-Flag (human, UniProt Q9Y4K0 26-774)
T1 construct: Lysyl oxidase-like 2 (LOXL2), human, full-length form (774 aa by the printed limits of its C-terminal domain); also called Flag-tagged LOXL2; source: HEK293T, transfected, immunopurified
T1 sequence (looked up): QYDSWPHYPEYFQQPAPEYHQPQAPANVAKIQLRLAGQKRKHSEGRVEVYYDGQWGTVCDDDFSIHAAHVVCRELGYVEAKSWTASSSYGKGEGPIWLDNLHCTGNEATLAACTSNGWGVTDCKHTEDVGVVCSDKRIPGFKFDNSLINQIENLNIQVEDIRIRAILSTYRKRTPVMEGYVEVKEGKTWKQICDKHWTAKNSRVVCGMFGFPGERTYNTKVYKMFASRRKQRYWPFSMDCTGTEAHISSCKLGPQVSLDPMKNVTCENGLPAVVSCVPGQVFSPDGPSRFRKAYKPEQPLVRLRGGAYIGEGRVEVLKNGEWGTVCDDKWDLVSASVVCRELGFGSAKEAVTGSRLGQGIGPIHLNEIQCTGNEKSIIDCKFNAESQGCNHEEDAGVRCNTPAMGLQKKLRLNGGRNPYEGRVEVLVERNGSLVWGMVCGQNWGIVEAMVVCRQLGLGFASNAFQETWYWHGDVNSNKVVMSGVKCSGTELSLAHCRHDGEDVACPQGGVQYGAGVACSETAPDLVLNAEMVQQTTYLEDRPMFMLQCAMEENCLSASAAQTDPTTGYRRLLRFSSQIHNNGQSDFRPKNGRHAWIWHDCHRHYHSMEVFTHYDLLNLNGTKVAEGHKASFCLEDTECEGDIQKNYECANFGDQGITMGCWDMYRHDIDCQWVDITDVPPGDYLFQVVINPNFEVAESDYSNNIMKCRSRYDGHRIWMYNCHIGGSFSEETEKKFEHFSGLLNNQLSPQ
Experiment: pull-down; Purified GST-aldolase A or GST from bacteria on glutathione resins, incubated with immunopurified LOXL2-Flag or L2Δ13-Flag from HEK293T at 4 °C for 2 h; immunoblot with anti-Flag
Conditions: both partners purified

B1: GST-aldolase A (enzyme, human)
chain: PYQYPALTPEQKKELSDIAHRIVAPGKGILAADESTGSIAKRLQSIGTENTEENRRFYRQLLLTADDRVNPCIGGVILFHETLYQKADDGRPFPQVIKSKGGVVGIKVDKGVVPLAGTNGETTTQGLDGLSERCAQYKKDGADFAKWRCVLKIGEHTPSALAIMENANVLARYASICQQNGIVPIVEPEILPDGDHDLKRCQYVTEKVLAAVYKALSDHHIYLEGTLLKPNMVTPGHACTQKFSHEEIAMATVTALRRTVPPAVTGITFLSGGQSEEEASINLNAINKCPLLKPWALTFSYGRALQASALKAWGGKKENLKAAQEEYVKRALANSLACQGKYTPSGQAGAAASESLFVSNHAY
notes: Aldolase A (fructose-bisphosphate aldolase A), human; also called GST-tagged aldolase A; GST-Aldolase A fusion protein; source: bacteria, purified recombinant, retained on glutathione resins
binding result: binds
